# From the DeepSol protein solubility set
# Test: soluble on expression in E. coli; label from the status in PepcDB or PDB records
row,Sequence,soluble on expression in E. coli
1,MSLGEWKDELIHNADKFDFPIFTPYYELTDEQRRTLWEGNQYFHGINDFFKMLEENQYKIQYRVMLARYRGKTICPKCHGTRLKPEAGYVRVDGKSISELVDLPITELKEFFDHLNLNEHDSNVARRILIEINSRIRFLIDVGLGYLTLNRLSNSLSGGESQRINLATSLGSSLVGSLYILDEPSIGLHSRDTDRLIRVLRQLQELGNTVVVVEHDEEIIRAADYIIDIGPNAGRLGGEVVYQGDMKDLKKGSNSHTVRYLLGEEEIPVPEHRRPWNNYIELTGARENNLKGVNVKFPLNVMTVVTGVSGSGKSTLVRDIFYRALKRELDECSDRPGEFSSISGSLRDLRNIEFVDQNPIGKSSRSNPVTYIKAYDEIRKLWAEQPLAKQMGYTAGHFSFNSEGGRCEECKGEGTITVEMQFMADLVLECESCHGKRFKADTLEVKFQDKNIYDVLEMTVNQAVEFFTEHGQKKIVKRLLPLQDVGLGYIKLGQSSSTLSGGENQRVKLAFYLSQEKADPTLFIFDEPTTGLHFHDIRKLLDAFDALIRRGHSIVIIEHNMDVIKCADYVIDLGPEGGDKGGNIVAVGTPEEVAACGASYTGQFLKEKLAEGHHHHHH,not soluble
2,MSLESIKVVIVGGGQAGIAMGYYLVKEKVPFMILDANEQVGDSWRNRYDSLVLFTPRTYSQLPGFPMDGAPNGFPTKDEMASYLQQYANHFNLPMRHHTKVDRVTRQQNGRFHLKTTNGWIEAEKVVIATGAFQKPYLPPVLDSANNEMSQVHSSAYRNPAQIPGKSVLVVGGGNSGAQIAVELAKERNVTMAISHPFRFLPLKLLNKSMFSWLEWGGLLYAGIDTTRGRWFKKQKDPIFGKELKSLIKKGQIHLKPRVMNVQGKEVEFADHSRLSFDRIIWSTGFSPSYEWIDIDGVIATNGWPIHNRGITNIRGLYFLGLPWQYQRGSALVCGVGRDAEYLVPFIKHGDKEGHHHHHH,soluble
3,MAANSTRRPIIAFMSDLGTTDDSVAQCKGLMYSICPDVTVVDVCHSMTPWDVEEGARYIVDLPRFFPEGTVFATTTYPATGTTTRSVAVRIKQAAKGGARGQWAGSGAGFERAEGSYIYIAPNNGLLTTVLEEHGYLEAYEVTSPKVIPEQPEPTFYAREMVAIPSAHLAAGFPLSEVGRPLEDHEIVRFNRPAVEQDGEALVGVVSAIDHPFGNVWTNIHRTDLEKAGIGYGARLRLTLDGVLPFEAPLTPTFADAGEIGNIAIYLNSRGYLSIARNAASLAYPYHLKEGMSARVEAR,soluble
4,MSLSGETLYQQLVNEWMELIRNGTVRPGERLPSVRKACAMHKVSPSTILQTYRMLEDRGLIEARPQSGFYVKSAASLPLPRMRRQSAAHHTGEVVDQIEAVMGVQSQADFIDLALASPRGSDFYPTTRFKHIMGRLLRQHPELTTDYPFPPGSERLRRQIAQRAVNWGCVLAADELVISNGCTEALQLALRAVCKPGDTVGVESPTYFALLPMLKDLGLAVIEIPTHPTSGLALDALELLLSEKRLNAVVAMPTVHNPLGSTMPPEAKRRLAQLVNDYQVPLIEDVPHAELFYGASTPDAVKAYDRDGWVLLCSSYSKTLAPGFRIGWIAPGRFLSEVRRLKFSSSLGQPALLEETLAEYLESGGYDHHLRLLRRHFISQMEKLRGAVAQHFPDGTRATLPSGGCLLWVELPSHADTMQLFRAALAERITVVPGAMYSAKGRYRNCLRLSCCYPWNEAYQRALIRVGELAGELAEGHEGHHHHHH,soluble
5,MSIEWYAVHTLVGQEEKAKANLEKRIKAFGLQDKIFQVLIPTEEVVELREGGKKEVVRKKLFPGYLFIQMDLGDEEEPNEAWEVVRGTPGITGFVGAGMRPVPLSPDEVRHILEVSGLLGKKEAPKAQVAFREGDQVRVVSGPFADFTGTVTEINPERGKVKVMVTIFGRETPVELDFSQVVKA,soluble
6,SEACVSVTSSILSSMDPTVDPCHDFFSYACGGWIKANPVPDGHSRWGTFSNLWEHNQAIIKHLLENSTASVSEAERKAQVYYRACMNETRIEELRAKPLMELIERLGGWNITGPWAKDNFQDTLQVVTAHYRTSPFFSVYVSADSKNSNSNVIQVDQSGLGLPSRDYYLNKTENEKVLTGYLNYMVQLGKLLGGGDEEAIRPQMQQILDFETALANITIPQEKRRDEELIYHKVTAAELQTLAPAINWLPFLNTIFYPVEINESEPIVVYDKEYLEQISTLINTTDRCLLNNYMIWNLVRKTSSFLDQRFQDADEKFMEVMYGTKKTSLPRWKFCVSDTENNLGFALGPMFVKATFAEDSKSIATEIILEIKKAFEESLSTLKWMDEETRKSAKEKADAIYNMIGYPNFIMDPKELDKVFNDYTAVPDLYFENAMRFFNFSWRVTADQLRKAPNRDQWSMTPPMVNAYYSPTKNEIVFPAGILQAPFYTRSSPKALNFGGIGVVVGHELTHAFDDQGREYDKDGNLRPWWKNSSVEAFKRQTECMVEQYSNYSVNGEPVNGRHTLGENIADNGGLKAAYRAYQNWVKKNGAEHSLPTLGLTNNQLFFLGFAQVWCSVRTPESSHEGLITDPHSPSRFRVIGSLSNSKEFSEHFRCPPGSPMNPPHKCEVW,soluble
7,MAPQKCFLQIKGMTCASCVSNIERNLQKEAGVLSVLVALMAGKAEIKYDPEVIQPLEIAQFIQDLGFEAAVMEDYAGSDGNIELTITGMTCASCVHNIESKLTRTNGITYASVALATSKALVKFDPEIIGPRDIIKIIEEIGFHASLAQ,soluble
8,MANRGGEYLYDELWKLCAGPLVDVPQAQERVYYFPQGHMEQLEASTQQVDLNTMKPLFVLPPKILCNVMNVSLQAEKDTDEVYAQITLIPVGTEVDEPMSPDPSPPELQRPKVHSFSKVLTASDTSTHGGFSVLRKHATECLPPLDMTQQTPTQELVAEDVHGYQWKFKHIFRGQPRRHLLTTGWSTFVTSKRLVAGDTFVFLRGENGELRVGVRRANLQQSSMPSSVISSHSMHLGVLATARHATQTKTMFIVYYKPRTSQFIISLNKYLEAMSNKFSVGMRFKMRFEGEDSPERRYSGTVIGVKDCSPHWKDSKWRCLEVHWDEPASISRPNKVSPWEIEPFVNSENVPKSVMLKNKRPRQVSEVSALDVGITASNLWSSVLTQPHEFAQSCITSQWSSPQQCHRDANEDAKKSDWLNNSYSVSNVAKDSTLNDQMVSPVEQKKPETTANYRLFGIDLMSSSLAVPEEKTAPMRPINISKPTMDSHSDPKSEISKVSEEKKQEPAEGSPKEVQSKQSSSTRSRTKVQMQGVPVGRAVDLNALKGYNELIDDIEKLFDIKGELRSRNQWEIVFTDDEGDMMLVGDDPWPEFCNMVKRIFIWSKEEVKKMTPGNQLRMLLREVETTLTTTSKTDNHSN,soluble
9,MLIAIEGVDGAGKRTLVEKLSGAFRAAGRSVATLAFPRYGQSVAADIAAEALHGEHGDLASSVYAMATLFALDRAGAVHTIQGLCRGYDVVILDRYVASNAAYSAARLHENAAGKAAAWVQRIEFARLGLPKPDWQVLLAVSAELAGERSRGRAQRDPGRARDNYERDAELQQRTGAVYAELAAQGWGGRWLVVGADVDPGRLAATLAPPDVPS,soluble
10,MRLPHQLTGSRFFSFSDEGEFLKSVSAVVDEEEFVRIGSLVQAGLMPITSKEVLATMLGVNPGIIWSLENKPERYYRRFKIPKGKGEREIVAPKVGLKVIQKWFSVQLQDCARIDDHVFGFVPGRSHIDAASVHTNANWVYSIDLTNFFPSTPINWVASSLINIGYDADSADRISKLCCYRGALAQGSPASPVLSNISMRGIDAALGALAAEMDVRVTRYADDITFSAAGEFPQVLPERLESLFSQTPWKISQEKTYFSEAPVRLKVHGLVVNGNTVKLTKGYRNKLRAYRHVLQTNRCRQEDLARLSGHVRYASQVSSRDDLEHHHHHH,not soluble
11,MNEFEKLLEESIASPEEFKRGQVVKGRVVKVAGDTVFVDIGYKTEAVISKEEVPEVQEGQEIEAVLVRFSPRIPNPVLSVKPLQEKKELEKLKEAYLNKSDVVGKIEKKVKGGFIVDFEGVKAFLPMSQAGKKLKEGQVLTFKVLDFKLDSKRPQIIVSHKAYLDEQREKRKQELLNTLKPGDVVEGKVVKIDPNKGVTLVIEGVLRAFLPKEELSWGRDKNPYNYTDVGETLKVKVKRVDKQKGFIIVSLRELKGNPWEKFLKEHKEGDVIEGRVVAVTPKGVVVEVMEGVEGFVPEEELAWEGKPEFKKGDLVKAKIMKIDPKRRRLILSIKRAQPRPWEIFLQKHPVGSKVKGKVIKIEGSRAIVELEDGVKGVIHRSDLSWTRPKRVEEVLKEGEEREFAVLGLEGKYVKLGLKQLTENPWEKVKEKYKVGDVVKLPVKELAPFGAFLEFPEGVEGLLPFSEVPRHIRIRKGQEYEVKIIDINPKEGKITFSINALYGEKPEEKEEKVEEVTTATTGGFKLGEILKKRWKL,not soluble
12,SLQKEANKTYHSSLKDGKLILLLDLDNTLLQATSFAKFNMELPLENFVDDNGEAELYKFYLPQYNFFYYLKFRPYVRQFLQILSLYYELAIYTNATREYADVVIAILDPDRTIFSDRIVARCSSTDRDENKYFSRIYPNVDPKYVIAFDDRKDVWIDIPQSHILKAEHYNFFELSKYDIIS,not soluble
13,MFLVVGQGNPGERYARTRHNLGFMVLDRLGLSFRPRGEALVAEAEGGLFLKPLTYYNLTGRAVAPLARFYKIPPERILVVHDEMDLPLGRIRFKAGGSAAGNRGVLSIEEALGTRAFHRLRLGIGKPPDPSRGAEYVLSPFREEELPVVERVLEAAKEAVWCWVREGLPPCAGRFNGLDLSLG,soluble
14,MSLSKNRNIIEGRILSFDKSPFSKDFDLSSLKIDKKRIFIIDGIIESIEPVNFINPEFQDIEIIDYGDHLISAGFVDAHVHYPQTAIVASWGKRLIDWLNTYTFPEEMRFSNLNYASEIAARYIDFSLSNGTTTMASYCTIHPESVDAFFKSAAVKNMCVVGGKTCMDRNAPGDLCDSAKSAYDDSKALLQKWHHKGRAHYAITPRFSPTSTPDQLLALGSLWSEFPGCLMQTHLSEQVDEIDWVRKLFPNARDYLDTYETFGLLGERGVYGHAIHLEAREIDRLSEVGASLIHCPTSNTFIGSGLFNMEDLTSRSLKVGLASDIGGGSSFSMLRTMAGAYEVAQLRGLALHPSQLMWLATQGSAKALHLDNQIGNIAPGMAADLVVLDLSSTPTISQRSARANDVWEELFPTIMMGDDRAIAATYVAGKKIEGHHHHHH,soluble
15,MGSDKIHHHHHHMDIISSFGFGRKHIAPILSKLMMLYPKLQIHFDTIDNTKDLIQHSIDLDIRIGNEIAPNMIAKKLASNFRILCASPSYLLKHGVPDSIEDLQTHDCLTISERDQSSVLWKFRHASEDVSVHIKPRFVSNNGEIIHQLAIEGHGIIFRSIWDVADELITGQLQHILPEYWQDADVWAVYPSRLKSSSKLQTCILFIQNELLNRLQHVQNLSRGQLISPAVKREPPPEKVFL,not soluble
16,MGVALAAMCLMSAQAQRRNEIQVPNLNGYTTLKCDFHMHSVFSDGLVWPTVRVDEAYREGLDAISLTEHIEYRPHKKDIIADHNRSYELSQKQAKKLGILLIRGSEITRSMPPGHFNAIFLNDSNPLEQKAYKDAFNEAKKQGAFIFWNHPGWARQQPDSTLWWPEHTQLYNDGCMHGIEVANGGLFMPEAIQWCLDKNLTMIGTSDIHQPIQTDYDFSKGEHRTMTFVFAKERSPEGIREALDNRRTAVYYRELVIGREEILRPFFEKCVDIKEVKRTEKEVTFSVMNATDLVLKLKKTAHDPSLVYFREMTLKPHTQHTISVKFDNGIKGGDCNFEVTNFIVAPDKGLDYTIKL,not soluble
